Each block holds one molecule with its values, some of them ahead of it.
Tests used:
[1] = target: T1, protein S (wild type) (UniProt P07225)
T1 sequence (chain, gamma-carboxyglutamate at 36 (printed as Gla36)): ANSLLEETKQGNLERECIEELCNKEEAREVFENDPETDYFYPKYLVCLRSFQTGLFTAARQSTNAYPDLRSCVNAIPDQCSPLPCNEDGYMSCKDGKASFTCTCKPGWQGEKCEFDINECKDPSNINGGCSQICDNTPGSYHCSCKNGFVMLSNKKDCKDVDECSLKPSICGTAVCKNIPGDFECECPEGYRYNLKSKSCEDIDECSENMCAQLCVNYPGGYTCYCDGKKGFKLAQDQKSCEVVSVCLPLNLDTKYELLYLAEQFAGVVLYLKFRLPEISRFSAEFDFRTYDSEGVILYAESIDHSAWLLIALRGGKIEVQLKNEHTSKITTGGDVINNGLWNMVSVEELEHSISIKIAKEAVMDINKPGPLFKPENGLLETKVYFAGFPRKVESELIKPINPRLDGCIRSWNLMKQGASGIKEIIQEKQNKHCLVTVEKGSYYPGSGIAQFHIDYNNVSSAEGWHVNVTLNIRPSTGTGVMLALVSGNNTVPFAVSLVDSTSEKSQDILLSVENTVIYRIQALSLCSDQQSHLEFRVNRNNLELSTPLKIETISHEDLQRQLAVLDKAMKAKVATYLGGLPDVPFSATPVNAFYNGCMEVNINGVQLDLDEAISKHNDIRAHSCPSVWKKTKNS

[2] = target: T2, activated factor V (FVa), wild type (UniProt P12259 29-737; P12259 1574-2224); assay: flow cytometry on phospholipid-coated magnetic beads; as a2, with 200 nmol/L β-chain-containing C4BP pre-incubated with 100 nmol/L protein S and 25 nmol/L FVa for 10 min before 50 nmol/L APC-Fluor; conditions: both partners purified
T2 construct: FVa heavy chain (A1-A2), cut from full-length recombinant FV by thrombin; FVa light chain (A3-C1-C2), cut from full-length recombinant FV by thrombin with release of the B domain; FV cDNA in vector pED from Dr Rodney Camire; also called WT FVa; factor Va
T2 sequence (looked up) 1: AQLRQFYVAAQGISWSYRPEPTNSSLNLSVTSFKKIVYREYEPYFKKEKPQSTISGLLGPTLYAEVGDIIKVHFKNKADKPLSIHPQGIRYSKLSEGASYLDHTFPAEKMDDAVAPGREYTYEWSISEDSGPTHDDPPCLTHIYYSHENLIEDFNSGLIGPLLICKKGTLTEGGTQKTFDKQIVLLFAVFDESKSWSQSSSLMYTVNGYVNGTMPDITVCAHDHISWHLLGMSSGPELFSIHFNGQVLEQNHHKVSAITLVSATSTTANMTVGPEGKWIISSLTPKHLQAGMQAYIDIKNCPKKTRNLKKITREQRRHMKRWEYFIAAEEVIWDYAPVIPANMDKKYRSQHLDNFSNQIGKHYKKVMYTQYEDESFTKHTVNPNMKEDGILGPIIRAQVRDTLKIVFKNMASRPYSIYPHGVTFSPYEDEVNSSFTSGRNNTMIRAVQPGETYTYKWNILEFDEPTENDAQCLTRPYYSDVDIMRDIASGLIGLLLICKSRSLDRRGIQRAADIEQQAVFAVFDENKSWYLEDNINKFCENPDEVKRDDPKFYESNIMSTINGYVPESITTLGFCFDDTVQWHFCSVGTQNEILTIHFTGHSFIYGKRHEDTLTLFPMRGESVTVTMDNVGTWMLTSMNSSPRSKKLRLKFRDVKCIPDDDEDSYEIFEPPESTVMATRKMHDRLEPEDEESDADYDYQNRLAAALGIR
T2 sequence (looked up) 2: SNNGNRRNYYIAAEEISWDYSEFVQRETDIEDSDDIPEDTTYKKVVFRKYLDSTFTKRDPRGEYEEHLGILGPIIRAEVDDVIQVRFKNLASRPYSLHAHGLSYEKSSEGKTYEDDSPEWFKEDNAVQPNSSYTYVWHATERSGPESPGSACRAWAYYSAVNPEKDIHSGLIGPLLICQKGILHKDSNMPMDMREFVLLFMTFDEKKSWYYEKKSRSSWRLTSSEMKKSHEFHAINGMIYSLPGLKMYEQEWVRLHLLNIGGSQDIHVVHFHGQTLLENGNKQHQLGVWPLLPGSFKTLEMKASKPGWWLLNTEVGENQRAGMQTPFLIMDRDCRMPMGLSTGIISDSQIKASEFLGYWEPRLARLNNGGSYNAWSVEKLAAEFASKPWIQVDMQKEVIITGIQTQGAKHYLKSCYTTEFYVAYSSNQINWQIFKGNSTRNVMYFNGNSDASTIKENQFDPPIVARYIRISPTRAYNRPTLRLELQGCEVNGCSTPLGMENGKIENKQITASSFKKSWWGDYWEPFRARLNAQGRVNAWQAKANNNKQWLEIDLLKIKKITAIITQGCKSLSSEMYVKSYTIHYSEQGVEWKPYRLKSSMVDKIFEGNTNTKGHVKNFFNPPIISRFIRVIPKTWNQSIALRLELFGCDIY

[3] = target: T3, β-chain-containing C4b-binding protein (C4BP), protein S-free (human, UniProt P04003 49-597; P20851 18-252); assay: as above; conditions: both partners purified
T3 construct: source: purified from pooled fresh frozen citrated human plasma
T3 sequence (looked up) 1: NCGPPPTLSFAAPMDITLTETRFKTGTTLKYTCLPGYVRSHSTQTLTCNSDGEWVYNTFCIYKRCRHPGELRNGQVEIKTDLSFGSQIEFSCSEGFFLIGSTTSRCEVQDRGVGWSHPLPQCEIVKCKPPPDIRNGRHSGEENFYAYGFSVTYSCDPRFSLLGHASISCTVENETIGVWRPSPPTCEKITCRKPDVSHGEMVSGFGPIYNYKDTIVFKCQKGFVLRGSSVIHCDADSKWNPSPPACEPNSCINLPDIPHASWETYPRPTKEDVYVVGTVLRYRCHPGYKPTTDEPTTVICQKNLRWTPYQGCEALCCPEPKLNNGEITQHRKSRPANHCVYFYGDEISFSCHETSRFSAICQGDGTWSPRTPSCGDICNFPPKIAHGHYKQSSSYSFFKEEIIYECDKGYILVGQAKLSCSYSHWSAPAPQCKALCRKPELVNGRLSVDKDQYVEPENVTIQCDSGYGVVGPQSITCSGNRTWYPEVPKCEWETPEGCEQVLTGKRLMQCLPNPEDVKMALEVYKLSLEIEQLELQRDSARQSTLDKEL
T3 sequence (looked up) 2: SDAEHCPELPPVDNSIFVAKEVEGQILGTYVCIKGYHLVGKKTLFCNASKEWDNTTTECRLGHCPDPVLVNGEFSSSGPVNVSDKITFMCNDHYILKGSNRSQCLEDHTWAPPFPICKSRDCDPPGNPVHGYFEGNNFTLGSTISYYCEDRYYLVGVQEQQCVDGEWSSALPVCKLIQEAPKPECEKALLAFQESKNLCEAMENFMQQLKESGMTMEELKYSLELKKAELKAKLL

FVa inactivation assay (remaining FVa activity by prothrombinase assay): protein S needed for inactivation comparable to WT FVa at 3 nmol/L protein S; 0.25 nmol/L APC, 25 μmol/L phospholipids, 10 min [1]: > 50 nmol/L
FVa inactivation assay in the presence of protein S: APC (0-0.25 nmol/L) that reduces FVa activity by ~50%; 25 μmol/L phospholipids, 10 min [1]: > 50 pmol/L
Molecule: activated factor V Nara (FVa^Nara, W1920R) (from UniProt P12259 29-737; P12259 1574-2224) (natural protein)

binding result [2]: binds
binding result [3]: binds
B1: protein S (wild type) (natural protein, UniProt P07225 42-676, looked up)
chain: T1 sequence (chain, gamma-carboxyglutamate at 36 (printed as Gla36))
modifications: gamma-carboxyglutamate at 36 (printed as Gla36)
notes: protein S, wild type; also called WT protein S; PS; source: HEK293 cells, stably transfected, purified (barium citrate precipitation, anion exchange chromatography)

From article PMC6916587, “The roles of factor Va and protein S in formation of the activated protein C/protein S/factor Va inactivation complex” (Journal of Thrombosis and Haemostasis, 2019)
